Target: Type 2 (MM2) sCJD proteinase K-resistant PrP^Sc aggregates (human)
Experiment: sedimentation velocity in sucrose gradient (ultracentrifugation)

Type 2 (MM2) sCJD proteinase K-resistant PrP^Sc aggregates (complex)
stoichiometry N: > 600 monomers

Reference: publication PMC4397081
